Source: patent US20110165161A1, “ANTI-EPCAM ANTIBODIES THAT INDUCE APOPTOSIS OF CANCER CELLS AND METHODS USING SAME” (priority 2009, published 2011)

Experiments:
[1] = target: T1, human EpCAM (epithelial cell adhesion/activating molecule) (human, UniProt P16422 24-314); assay: cell-based or functional assay
T1 sequence: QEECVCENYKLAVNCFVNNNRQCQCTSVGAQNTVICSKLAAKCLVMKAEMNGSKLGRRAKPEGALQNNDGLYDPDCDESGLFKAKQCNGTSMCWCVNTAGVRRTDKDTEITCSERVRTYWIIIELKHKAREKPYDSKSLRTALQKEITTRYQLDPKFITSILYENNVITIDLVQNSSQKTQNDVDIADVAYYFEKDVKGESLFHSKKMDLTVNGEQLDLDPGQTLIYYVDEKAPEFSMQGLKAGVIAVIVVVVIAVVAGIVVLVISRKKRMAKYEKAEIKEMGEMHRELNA

[2] = target: T1, human EpCAM (epithelial cell …); assay: cell-based or functional assay; remark: listed apart in the source
[3] = target: T1, human EpCAM (epithelial cell …); assay: flow cytometry, CHO/EpCAM cells, 0.1 µg/ml antibody
Description: A 300× dilution of human cell hyper-immune serum (HPS 300×) was used as binding positive control for both cell lines here. After 1 hr incubation at 4° C., cells were washed twice with 200 μl FACS buffer (1×PBS containing 1% FBS), stained with 100 μl of 1 μg/ml goat-anti-mouse IgG-PE (Southern Biotech, Cat. No. 1032-09) in FACS buffer and then incubated at 4° C. for 30 min. Cells were washed thrice with FACS buffer and analyzed by flow cytometry (BD LSR, BD Life Sciences).

[4] = target: T2, EGFI-Cr1 wild type (first EGF-like repeat of human EpCAM fused to the constant region of human immunoglobulin … (human, UniProt P01857-1 99-330 = IgG part)); assay: direct ELISA, coated EGFI-Cr1 fusion, 0.1 µg/ml antibody
T2 construct: cDNA covered aa 1-63; Expressed in COS-7 cells; also called WT; EpCAM EGF-1 fusion protein WT
Description: (§1) A direct ELISA was used for testing the reactivity of anti-EpCAM antibodies toward variant EpCAM mutants. Briefly, purified EpCAM EGF-1 fusion proteins (WT, Q24A, E25K, E26D, A35T, N37R, F39A, V40E, N41A, N42E, N43A, R44G, Q45A, Q47A or T49A) and irrelevant control (CEA-Cr1) were pre-diluted to 0.5 μg/ml in coating buffer (8.4 g NaHCO₃, 3.4 g Na₂CO₃ in 1 L H₂O, pH 9.5) and aliquoted (100 μl/well) into 96-well plates. […] Plates were then washed 3 times with PBST followed by the addition of the enzyme substrate TMB (BD Biosciences, Cat. No. 555214). […] The optical densities at 450 nm wavelength were measured on an ELISA plate reader.

EGFI-Cr1 Q24A = target: T3, EGFI-Cr1 Q24A (human, UniProt P16422 25-63); assay: as above
T3 construct: not shown: The fused constant region of human immunoglobulin gamma 1 heavy chain (Cr1)
T3 chain: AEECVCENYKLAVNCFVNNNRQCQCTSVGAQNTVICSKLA
Description: as §1

EGFI-Cr1 E25K = target: T4, EGFI-Cr1 E25K (human, UniProt P16422 24-63); assay: as above
T4 construct: not shown: The fused constant region of human immunoglobulin gamma 1 heavy chain (Cr1)
T4 chain: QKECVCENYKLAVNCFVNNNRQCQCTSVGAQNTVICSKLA
Description: as §1

EGFI-Cr1 E26D = target: T5, EGFI-Cr1 E26D (human, UniProt P16422 24-63); assay: as above
T5 construct: not shown: The fused constant region of human immunoglobulin gamma 1 heavy chain (Cr1)
T5 chain: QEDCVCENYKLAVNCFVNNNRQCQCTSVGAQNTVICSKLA
Description: as §1

EGFI-Cr1 A35T = target: T6, EGFI-Cr1 A35T (human, UniProt P16422 24-63); assay: as above
T6 construct: not shown: The fused constant region of human immunoglobulin gamma 1 heavy chain (Cr1)
T6 chain: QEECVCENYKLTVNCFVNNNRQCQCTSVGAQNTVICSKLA
Description: as §1

EGFI-Cr1 N37R = target: T7, EGFI-Cr1 N37R (human); assay: as above
T7 construct: not shown: The fused constant region of human immunoglobulin gamma 1 heavy chain (Cr1)
T7 chain: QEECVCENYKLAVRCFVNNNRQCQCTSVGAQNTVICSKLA
Description: as §1

EGFI-Cr1 F39A = target: T8, EGFI-Cr1 F39A (human, UniProt P16422 24-63); assay: as above
T8 construct: not shown: The fused constant region of human immunoglobulin gamma 1 heavy chain (Cr1)
T8 chain: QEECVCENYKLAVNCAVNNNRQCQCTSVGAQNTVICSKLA
Description: as §1

EGFI-Cr1 V40E = target: T9, EGFI-Cr1 V40E (human); assay: as above
T9 construct: not shown: The fused constant region of human immunoglobulin gamma 1 heavy chain (Cr1)
T9 chain: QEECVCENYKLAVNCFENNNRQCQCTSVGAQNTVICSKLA
Description: as §1

EGFI-Cr1 N41A = target: T10, EGFI-Cr1 N41A (human, UniProt P16422 24-63); assay: as above
T10 construct: not shown: The fused constant region of human immunoglobulin gamma 1 heavy chain (Cr1)
T10 chain: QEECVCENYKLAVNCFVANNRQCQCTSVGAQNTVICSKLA
Description: as §1

EGFI-Cr1 N42E = target: T11, EGFI-Cr1 N42E (human, UniProt P16422 24-63); assay: as above
T11 construct: not shown: the constant region of human immunoglobulin gamma 1 heavy chain (Cr1) fused at the C-terminus
T11 chain: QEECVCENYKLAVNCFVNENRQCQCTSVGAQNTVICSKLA
Description: as §1

EGFI-Cr1 N43A = target: T12, EGFI-Cr1 N43A (human, UniProt P16422 24-63); assay: as above
T12 construct: not shown: the constant region of human immunoglobulin gamma 1 heavy chain (Cr1) fused at the C-terminus
T12 chain: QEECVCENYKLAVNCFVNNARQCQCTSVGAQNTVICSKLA
Description: as §1

EGFI-Cr1 R44G = target: T13, EGFI-Cr1 R44G (human, UniProt P16422 24-63); assay: as above
T13 construct: not shown: the constant region of human immunoglobulin gamma 1 heavy chain (Cr1) fused at the C-terminus
T13 chain: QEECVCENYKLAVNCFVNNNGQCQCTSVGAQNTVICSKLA
Description: as §1

EGFI-Cr1 Q45A = target: T14, EGFI-Cr1 Q45A (human, UniProt P16422 24-63); assay: as above
T14 construct: not shown: the constant region of human immunoglobulin gamma 1 heavy chain (Cr1) fused at the C-terminus
T14 chain: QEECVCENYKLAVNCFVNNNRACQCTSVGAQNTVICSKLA
Description: as §1

EGFI-Cr1 Q47A = target: T15, EGFI-Cr1 Q47A (human, UniProt P16422 24-63); assay: as above
T15 construct: not shown: the constant region of human immunoglobulin gamma 1 heavy chain (Cr1) fused at the C-terminus
T15 chain: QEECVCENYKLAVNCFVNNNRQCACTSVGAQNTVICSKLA
Description: as §1

EGFI-Cr1 T49A = target: T16, EGFI-Cr1 T49A (human, UniProt P16422 24-63); assay: as above
T16 construct: not shown: the constant region of human immunoglobulin gamma 1 heavy chain (Cr1) fused at the C-terminus
T16 chain: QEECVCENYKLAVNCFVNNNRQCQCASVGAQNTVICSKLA
Description: as §1

B1: murine monoclonal antibody 12H8 (antibody, mouse IgG2a, V domains shown)
VH: QIQLVQSGPELKKPGETVKISCKTSGYTFTDYSMHWVNQAPGKGLKWMGWINTETGEPTYTDDFKGRFAFSLETSASTAYLQINNLKNEDTATYFCARTAVYWGQGTTLTVSS
VL: DIQMTQSPSSLSASLGERVSLTCRASQEISGSLSWLQQKPDGTIKRLIYAASTLNSGVPKRFSGRRSGSDYSLTISSLESEDFVDYYCLQYSSYPWSFGGGTKLEIKR
notes: Mouse IgG2a, kappa, from hybridoma; also called m342-12H8.3; m12H8
% Annexin V/PI-positive cells, DLD-1, 1.0 µg/ml mAb [1]: 61%
% Annexin V/PI-positive cells, DLD-1, 3.0 µg/ml mAb [1]: 67%
% Annexin V/PI-positive cells, DLD-1, 10 µg/ml mAb [1]: 72%
% Annexin V/PI-positive cells, FaDu, 1.0 µg/ml mAb [1]: 42%
% Annexin V/PI-positive cells, FaDu, 3.0 µg/ml mAb [1]: 43%
% Annexin V/PI-positive cells, FaDu, 10 µg/ml mAb [1]: 44%
% Annexin V/PI-positive cells, LNCaP, 1.0 µg/ml mAb [1]: 61%
% Annexin V/PI-positive cells, LNCaP, 3.0 µg/ml mAb [1]: 67%
% Annexin V/PI-positive cells, LNCaP, 10 µg/ml mAb [1]: 58%
% Annexin V/PI-positive cells, NCI-H520, 1.0 µg/ml mAb [1]: 24%
% Annexin V/PI-positive cells, NCI-H520, 3.0 µg/ml mAb [1]: 29%
% Annexin V/PI-positive cells, NCI-H520, 10 µg/ml mAb [1]: 34%
% Annexin V/PI-positive cells, NCI-N87, 1.0 µg/ml mAb [1]: 67%
% Annexin V/PI-positive cells, NCI-N87, 3.0 µg/ml mAb [1]: 62%
% Annexin V/PI-positive cells, NCI-N87, 10 µg/ml mAb [1]: 66%
% Annexin V/PI-positive cells, NIH:OVCAR-3, 1.0 µg/ml mAb [1]: 59%
% Annexin V/PI-positive cells, NIH:OVCAR-3, 3.0 µg/ml mAb [1]: 62%
% Annexin V/PI-positive cells, NIH:OVCAR-3, 10 µg/ml mAb [1]: 63%
% Annexin V/PI-positive cells, T-47D, 1.0 µg/ml mAb [1]: 49%
% Annexin V/PI-positive cells, T-47D, 3.0 µg/ml mAb [1]: 54%
% Annexin V/PI-positive cells, T-47D, 10 µg/ml mAb [1]: 56%
% of Annexin V + PI staining (untreated background subtracted), NCI-H358, 10 µg/ml mAb, Exp1 [2]: 36%
% of Annexin V + PI staining (untreated background subtracted), NCI-H358, 10 µg/ml mAb, Exp2 [2]: 33%
% of Annexin V + PI staining (untreated background subtracted), NCI-H358, 10 µg/ml mAb, Exp3 [2]: 31%
% of Annexin V + PI staining (untreated background subtracted), NCI-H358, 10 µg/ml mAb, Exp4 [2]: 40%
% of Annexin V + PI staining (untreated background subtracted), NCI-H358, 10 µg/ml mAb, Exp5 [2]: 28%
MFI [3]: 6650 MFI
relative binding activity (% of WT) [4]: 100%
relative binding activity (% of WT) (EGFI-Cr1 Q24A): 0%
relative binding activity (% of WT) (EGFI-Cr1 E25K): 1%
relative binding activity (% of WT) (EGFI-Cr1 E26D): 94%
relative binding activity (% of WT) (EGFI-Cr1 A35T): 95%
relative binding activity (% of WT) (EGFI-Cr1 N37R): 94%
relative binding activity (% of WT) (EGFI-Cr1 F39A): 96%
relative binding activity (% of WT) (EGFI-Cr1 V40E): 93%
relative binding activity (% of WT) (EGFI-Cr1 N41A): 81%
relative binding activity (% of WT) (EGFI-Cr1 N42E): 23%
relative binding activity (% of WT) (EGFI-Cr1 N43A): 96%
relative binding activity (% of WT) (EGFI-Cr1 R44G): 91%
relative binding activity (% of WT) (EGFI-Cr1 Q45A): 89%
relative binding activity (% of WT) (EGFI-Cr1 Q47A): 93%
relative binding activity (% of WT) (EGFI-Cr1 T49A): 94%
